No end group written: not given here.
Key:
recombinant human PREP = molecular target: T1, recombinant human PREP (Homo sapiens, UniProt P48147); assay: FRET-quench assay: probe cleavage by recombinant human PREP; format: biochemical; conditions: 1 nM enzyme
T1 construct: purchased R&D Systems 4308-SE
T1 sequence (P48147 1-710): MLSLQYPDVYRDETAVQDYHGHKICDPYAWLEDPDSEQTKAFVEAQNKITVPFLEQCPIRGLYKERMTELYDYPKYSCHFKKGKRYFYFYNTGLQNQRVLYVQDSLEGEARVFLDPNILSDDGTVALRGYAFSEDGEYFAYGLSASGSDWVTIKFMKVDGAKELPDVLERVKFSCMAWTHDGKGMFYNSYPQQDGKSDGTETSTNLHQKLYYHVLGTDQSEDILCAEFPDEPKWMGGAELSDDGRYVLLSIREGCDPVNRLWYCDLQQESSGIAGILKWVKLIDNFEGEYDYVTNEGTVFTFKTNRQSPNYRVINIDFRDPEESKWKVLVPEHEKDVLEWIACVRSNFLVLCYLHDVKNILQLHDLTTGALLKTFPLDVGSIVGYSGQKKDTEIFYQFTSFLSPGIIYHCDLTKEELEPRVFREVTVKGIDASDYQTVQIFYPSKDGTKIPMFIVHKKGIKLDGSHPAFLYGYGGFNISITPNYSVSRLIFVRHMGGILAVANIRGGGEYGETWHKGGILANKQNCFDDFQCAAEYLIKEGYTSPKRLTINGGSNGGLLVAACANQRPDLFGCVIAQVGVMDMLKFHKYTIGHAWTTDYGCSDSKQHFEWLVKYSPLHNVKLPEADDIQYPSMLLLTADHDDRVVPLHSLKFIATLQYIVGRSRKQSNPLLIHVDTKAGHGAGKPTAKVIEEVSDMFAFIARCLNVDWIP
Text: (§1) Human prolyl oligopeptidase (PREP, 4308-SE), DPPIV (1180-SE), DPP9 (5419-SE), and DPPII/DPP7 (3438-SE) proteins were purchased from R&D Systems. Human DPP8 (BML-SE527) protein was purchased from Enzo Life Sciences. N-terminal octa-His-tagged human and mouse FAP proteins containing the extracellular domain (residues L26-D760 and L26-D761, respectively) were purified from the conditioned media of transiently-transfected CHO cells, by immobilized metal affinity chromatography (IMAC), followed by size exclusion chromatography (SEC).
(§2) Peptides of the region flanking the C-terminal human FGF21 cleavage site (VGPSQG) or a variant with D-alanine at P2 (VaPSQG) were synthesized (Anaspec, Inc.), containing an amine-terminal donor (HyLite Fluor 488 or Cy5.5 for aP NIRF) and a dark quencher-acceptor (QXL 520 or QSY21 for aP NIRF) conjugated to a supplementary C-terminal lysine. ANPFAP (Bioconjugate Chem 23:1704-11) and aP NIRF were synthesized by CPC Scientific (Sunnyvale, Calif.). Assays were conducted at 37° C. in 50 mM HEPES (pH 7.2), 150 mM NaCl, 1 mM EDTA, 0.1 mg/ml BSA. The excitation/emission wavelengths of cleaved peptide are 490/520 nm or 675/695 nm for ANPFAP and aP NIRF. Fluorescence was monitored on a Tecan M1000 Pro plate reader in kinetic mode. Except where indicated otherwise, measurements of serum or plasma FAP activity were performed with the peptide substrate concentration at 6 μM and a 10-fold dilution of serum or plasma in assay buffer.

recombinant human FAP = molecular target: T2, recombinant human FAP (Homo sapiens, UniProt Q12884); assay: FRET-quench assay: probe cleavage by recombinant human FAP; format: biochemical; conditions: 1 nM enzyme
T2 construct: (residues L26-D760 and L26-D761, respectively); octa-His (N); made in house; host or cells: transiently transfected CHO cells (conditioned media)
T2 sequence (Q12884 26-760): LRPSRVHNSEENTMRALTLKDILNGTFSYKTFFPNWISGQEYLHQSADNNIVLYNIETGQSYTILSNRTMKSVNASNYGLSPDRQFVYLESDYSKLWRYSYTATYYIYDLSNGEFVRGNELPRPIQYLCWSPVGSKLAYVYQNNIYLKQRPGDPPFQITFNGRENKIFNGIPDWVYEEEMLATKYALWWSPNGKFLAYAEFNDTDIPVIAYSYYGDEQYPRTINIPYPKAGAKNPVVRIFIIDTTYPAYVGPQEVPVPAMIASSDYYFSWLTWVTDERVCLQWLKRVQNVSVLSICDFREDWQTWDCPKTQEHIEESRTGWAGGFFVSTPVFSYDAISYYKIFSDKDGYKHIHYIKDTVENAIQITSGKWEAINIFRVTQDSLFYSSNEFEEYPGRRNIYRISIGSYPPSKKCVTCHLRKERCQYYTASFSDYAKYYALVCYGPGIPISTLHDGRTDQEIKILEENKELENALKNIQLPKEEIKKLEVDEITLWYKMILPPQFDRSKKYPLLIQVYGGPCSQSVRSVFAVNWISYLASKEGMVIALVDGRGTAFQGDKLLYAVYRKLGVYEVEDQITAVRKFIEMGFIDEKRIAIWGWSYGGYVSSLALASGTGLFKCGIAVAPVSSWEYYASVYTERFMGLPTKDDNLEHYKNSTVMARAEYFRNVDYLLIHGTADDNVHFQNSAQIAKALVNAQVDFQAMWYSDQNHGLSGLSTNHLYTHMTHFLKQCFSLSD
Text: as §1, §2

Substance | cleavage by recombinant human PREP (recombinant human PREP) | cleavage by recombinant human FAP (recombinant human FAP)
GP probe: human FGF21 cleavage-site peptide VGPSQG with amine-terminal HyLite Fluor 488 donor and QXL 520 quencher on supplementary C-terminal lysine ({HyLite Fluor 488}-VGPSQGK(QXL 520)) | readily cleaved | readily cleaved
aP probe: FGF21-based peptide VaPSQG (D-alanine at P2) with HyLite Fluor 488 donor and QXL 520 quencher | unable to digest | clearly detectable
